In patent US20110105397A1, “METHOD FOR TREATING HEART FAILURE WITH STRESSCOPIN-LIKE PEPTIDES” (priority 2009, published 2011):
Each block holds one binder with its values, some of them ahead of it. Where no end group is shown, it is not given here.

Target: T1, human corticotrophin releasing hormone receptor type 2 (CRHR2) (human, UniProt Q13324 1-411)
T1 sequence (looked up): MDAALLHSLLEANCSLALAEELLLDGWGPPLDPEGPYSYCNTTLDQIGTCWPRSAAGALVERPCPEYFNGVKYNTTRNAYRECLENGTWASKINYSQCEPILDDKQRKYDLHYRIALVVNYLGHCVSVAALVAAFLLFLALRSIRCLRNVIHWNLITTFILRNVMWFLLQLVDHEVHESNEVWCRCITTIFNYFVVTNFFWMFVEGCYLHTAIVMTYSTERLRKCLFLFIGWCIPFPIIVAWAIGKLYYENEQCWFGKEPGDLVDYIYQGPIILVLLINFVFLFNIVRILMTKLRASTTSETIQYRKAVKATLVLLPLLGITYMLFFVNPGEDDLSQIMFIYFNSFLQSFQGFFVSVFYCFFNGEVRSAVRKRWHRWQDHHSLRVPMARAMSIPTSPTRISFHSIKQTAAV
Assay: cell-based or functional assay

B2: Pegylated Cys-variant stresscopin-like peptide with NES linker and PEG about 20 kDa SEQ ID NO: 79 (peptide)
peptide: TKFTLSLDVPTNIMNLLFNIAKAKCLRAQAAANAHLMAQI
modifications: NES-PEG (about 20 kDa) on Cys 25; C-terminal amide (-NH2)
- Log DR: 1.11 log10
- pA50: 8.5 -log10(M)

B4: Pegylated Cys-variant stresscopin-like peptide with NES linker and PEG about 20 kDa SEQ ID NO: 75 (peptide)
peptide: TKFTLSLDVPTNIMNLLFNICKAKNLRAQAAANAHLMAQI
modifications: NES-PEG (about 20 kDa) on Cys 21; C-terminal amide (-NH2)
- Log DR: 1.3 log10
- pA50: 8.24 -log10(M)

B5: Pegylated Cys-variant stresscopin-like peptide with NES linker and PEG about 20 kDa SEQ ID NO: 72 (peptide)
peptide: TKFTLSLDVPTNIMNLLCNIAKAKNLRAQAAANAHLMAQI
modifications: NES-PEG (about 20 kDa) on Cys 18; C-terminal amide (-NH2)
- Log DR: 1.5 log10
- pA50: 8.04 -log10(M)

B6: Pegylated Cys-variant stresscopin-like peptide with NES linker and PEG about 20 kDa SEQ ID NO: 73 (peptide)
peptide: TKFTLSLDVPTNIMNLLFCIAKAKNLRAQAAANAHLMAQI
modifications: NES-PEG (about 20 kDa) on Cys 19; C-terminal amide (-NH2)
- Log DR: 1.11 log10
- pA50: 8.29 -log10(M)

B11: Pegylated Cys-variant stresscopin-like peptide with NES linker and PEG about 20 kDa SEQ ID NO: 78 (peptide)
peptide: TKFTLSLDVPTNIMNLLFNIAKACNLRAQAAANAHLMAQI
modifications: NES-PEG (about 20 kDa) on Cys 24; C-terminal amide (-NH2)
- Log DR: ~1.52 log10
- pA50: ~7.89 -log10(M)

B14: Pegylated Cys-variant stresscopin-like peptide with NES linker and PEG about 20 kDa SEQ ID NO: 74 (peptide)
peptide: TKFTLSLDVPTNIMNLLFNCAKAKNLRAQAAANAHLMAQI
modifications: NES-PEG (about 20 kDa) on Cys 20; C-terminal amide (-NH2)
- Log DR: ~2.28 log10
- pA50: ~7.33 -log10(M)

B15: Pegylated Cys-variant stresscopin-like peptide with NES linker and PEG about 20 kDa SEQ ID NO: 77 (peptide)
peptide: TKFTLSLDVPTNIMNLLFNIAKCKNLRAQAAANAHLMAQI
modifications: NES-PEG (about 20 kDa) on Cys 23; C-terminal amide (-NH2)
- Log DR: 1.27 log10
- pA50: 8.27 -log10(M)

B16: Cys-variant stresscopin-like peptide SEQ ID NO: 36 (peptide)
peptide: TKFTLSLDVPTNIMNLLFNIAKAKNLRAQAAANACLMAQI-NH2
- Log DR: 0.42 log10
- pA50: 9.1 -log10(M)

B17: Cys-variant stresscopin-like peptide SEQ ID NO: 40 (peptide)
peptide: TKFTLSLDVPTNIMNLLFNIAKAKNLRAQAAANAHLMACI-NH2
- Log DR: 0.55 log10
- pA50: 9.08 -log10(M)

B18: Cys-variant stresscopin-like peptide SEQ ID NO: 35 (peptide)
peptide: TKFTLSLDVPTNIMNLLFNIAKAKNLRAQAAANCHLMAQI-NH2
- Log DR: 0.7 log10
- pA50: 8.93 -log10(M)

B19: Cys-variant stresscopin-like peptide SEQ ID NO: 30 (peptide)
peptide: TKFTLSLDVPTNIMNLLFNIAKAKNLRACAAANAHLMAQI-NH2
- Log DR: 1.28 log10
- pA50: 8.4 -log10(M)

B20: Cys-variant stresscopin-like peptide SEQ ID NO: 33 (peptide)
peptide: TKFTLSLDVPTNIMNLLFNIAKAKNLRAQAACNAHLMAQI-NH2
- Log DR: 0.45 log10
- pA50: 9.07 -log10(M)

B21: Cys-variant stresscopin-like peptide SEQ ID NO: 32 (peptide)
peptide: TKFTLSLDVPTNIMNLLFNIAKAKNLRAQACANAHLMAQI-NH2
- Log DR: 0.11 log10
- pA50: 9.41 -log10(M)

B22: Cys-variant stresscopin-like peptide SEQ ID NO: 24 (peptide)
peptide: TKFTLSLDVPTNIMNLLFNIAKCKNLRAQAAANAHLMAQI-NH2
- Log DR: 0.74 log10
- pA50: 8.94 -log10(M)

B23: Cys-variant stresscopin-like peptide SEQ ID NO: 25 (peptide)
peptide: TKFTLSLDVPTNIMNLLFNIAKACNLRAQAAANAHLMAQI-NH2
- Log DR: 0.35 log10
- pA50: 9.17 -log10(M)

B24: Cys-variant stresscopin-like peptide SEQ ID NO: 26 (peptide)
peptide: TKFTLSLDVPTNIMNLLFNIAKAKCLRAQAAANAHLMAQI-NH2
- Log DR: 0.08 log10
- pA50: 9.44 -log10(M)

Continued, values first:

- Log DR: 0.98 log10
- pA50: 8.48 -log10(M)
B1: Pegylated Cys-variant stresscopin-like peptide with NES linker and PEG about 20 kDa SEQ ID NO: 89 (peptide)
peptide: TKFTLSLDVPTNIMNLLFNIAKAKNLRAQAAANACLMAQI
modifications: NES-PEG (about 20 kDa) on Cys 35; C-terminal amide (-NH2)

- Log DR: > 2.39 log10
- pA50: ~7 -log10(M)
B3: Pegylated Cys-variant stresscopin-like peptide with NES linker and PEG about 20 kDa SEQ ID NO: 94 (peptide)
peptide: TKFTLSLDVPTNIMNLLFNIAKAKNLRAQAAANAHLMAQC
modifications: NES-PEG (about 20 kDa) on Cys 40; C-terminal amide (-NH2)

- Log DR: 1.12 log10
- pA50: 8.4 -log10(M)
B7: Pegylated Cys-variant stresscopin-like peptide with NES linker and PEG about 20 kDa SEQ ID NO: 82 (peptide)
peptide: TKFTLSLDVPTNIMNLLFNIAKAKNLRCQAAANAHLMAQI
modifications: NES-PEG (about 20 kDa; MW20000) on Cys 28; C-terminal amide (-NH2)

- Log DR: ~2.17 log10
- pA50: ~7.49 -log10(M)
B8: Pegylated Cys-variant stresscopin-like peptide with NES linker and PEG about 20 kDa SEQ ID NO: 90 (peptide)
peptide: TKFTLSLDVPTNIMNLLFNIAKAKNLRAQAAANAHCMAQI
modifications: NES-PEG (about 20 kDa) on Cys 36; C-terminal amide (-NH2)

- Log DR: 1.55 log10
- pA50: 8.12 -log10(M)
B9: Pegylated Cys-variant stresscopin-like peptide with NES linker and PEG about 20 kDa SEQ ID NO: 88 (peptide)
peptide: TKFTLSLDVPTNIMNLLFNIAKAKNLRAQAAANCHLMAQI
modifications: NES-PEG (about 20 kDa) on Cys 34; C-terminal amide (-NH2)

- Log DR: 1.55 log10
- pA50: 8.12 -log10(M)
B10: Pegylated Cys-variant stresscopin-like peptide with NES linker and PEG about 20 kDa SEQ ID NO: 92 (peptide)
peptide: TKFTLSLDVPTNIMNLLFNIAKAKNLRAQAAANAHLMCQI
modifications: NES-PEG (about 20 kDa) on Cys 38; C-terminal amide (-NH2)

- Log DR: 1.47 log10
- pA50: 8.2 -log10(M)
B12: Pegylated Cys-variant stresscopin-like peptide with NES linker and PEG about 20 kDa SEQ ID NO: 93 (peptide)
peptide: TKFTLSLDVPTNIMNLLFNIAKAKNLRAQAAANAHLMACI
modifications: NES-PEG (about 20 kDa) on Cys 39; C-terminal amide (-NH2)

- Log DR: 0.89 log10
- pA50: 8.51 -log10(M)
B13: Pegylated Cys-variant stresscopin-like peptide with NES linker and PEG about 20 kDa SEQ ID NO: 85 (peptide)
peptide: TKFTLSLDVPTNIMNLLFNIAKAKNLRAQACANAHLMAQI
modifications: NES-PEG (about 20 kDa) on Cys 31; C-terminal amide (-NH2)
